The record followed here is US20070092518A1 (published 2007).

Sequences and labels used below:
B1: SEQ ID NO 58 (Fab, V domains shown)
VH: EVQLTESGGGLVQPGGSLRLSCAASQFIFSNHWMNWVRQAPGKGLEWIGEIRSKSSNSATSYAESVKGRFIISRDDNGNDLYLEMNSLKTEDTAEYYCAQNYYGSTYDYWGQGTLVTVS
VL: EIVLTQSPDFQSVTPKEKVTITCRASQFVGSSIHWYQQKPDQSPKLLIKYASESMSGVPSRFSGSGSGTDFTFTISSLEAEDAATYYCQQSHSWPFTFGPGTKVDIK
notes: Fab, E. coli lysate
B2: SEQ ID NO 83 (Fab, V domains shown)
VH: EVQLTESGGGLVQPGGSLRLSCRASGFIFSNHYMNWVRQAPGKGLEWIGEIRSKSINGATSYAESVKGRFIISRDDNGNSLYLEMNSLKTEDTAEYYCARNYYGSTPDYWGQGTLVTVS
VL: EIVLTQSPDFQSVTPKEKVTITCRASQFVGSSIHWYQQKPDQSPKLLIKYASESMSGVPSRFSGSGSGTDFTFTISSLEAEDAATYYCQQSHSWPFTFGPGTKVDIK
notes: Fab, E. coli lysate
B3: SEQ ID NO 66 (Fab, V domains shown)
VH: EVQLTESGGGLVQPGGSLRLSCRASGFTFSNHYMNWVRQAPGKGLEWIGEIRSKSIYSATHYAESVKGRFIISRDDNKTDLTLEMNSLKTEDTAEYYCARNYYGSTYDYWGQGTLVTVS
VL: EIVLTQSPDFQSVTPKEKVTITCRASQFVGSSIHWYQQKPDQSPKLLIKYASESMSGVPSRFSGSGSGTDFTFTISSLEAEDAATYYCQQSHSWPFTFGPGTKVDIK
notes: Fab, E. coli lysate
B4: SEQ ID NO 81 (Fab, V domains shown)
VH: EVQLVESGGGLVQPGGSLRLSCRASGSTFSNHYMNWVRQAPGKGLEWIGEIRSKSINSATSYAESVKGRFIISRDGNGTDLTLEMNSLKTEDTAEYYCAQNYYGSTYDYWGQGTLVTVS
VL: EIVLTQSPDFQSVTPKEKVTITCRASQFVGSSIHWYQQKPDQSPKLLIKYASESMSGVPSRFSGSGSGTDFTFTISSLEAEDAATYYCQQSHSWPFTFGPGTKVDIK
notes: Fab, E. coli lysate
B5: SEQ ID NO 61 (Fab, V domains shown)
VH: EVQLVESGGGLVQPGGSLRLSCRASGFIFSNHYMNWVRQAPGKGLEWIGEIRSKSIYGATHYAESVKGRFIISRDGNGNDLYLEMNSLKTEDTAEYYCARNYYGSTYDYWGQGTLVTVS
VL: EIVLTQSPDFQSVTPKEKVTITCRASQFVGSSIHWYQQKPDQSPKLLIKYASESMSGVPSRFSGSGSGTDFTFTISSLEAEDAATYYCQQSHSWPFTFGPGTKVDIK
notes: Fab, E. coli lysate
B6: SEQ ID NO 79 (Fab, V domains shown)
VH: EVQLVESGGGLVQPGGSLRLSCAASQSIFSNHYMNWVRQAPGKGLEWIGEIRSKSIYGATHYAESVKGRFIISRDGNKNDLTLEMNSLKTEDTAEYYCARNYYGSTPDYWGQGTLVTVS
VL: EIVLTQSPDFQSVTPKEKVTITCRASQFVGSSIHWYQQKPDQSPKLLIKYASESMSGVPSRFSGSGSGTDFTFTISSLEAEDAATYYCQQSHSWPFTFGPGTKVDIK
notes: Fab, E. coli lysate
B7: SEQ ID NO 64 (Fab, V domains shown)
VH: EVQLTESGGGLVQPGGSLRLSCAASQFTFSNHWMNWVRQAPGKGLEWIGEIRSKSIYGATHYAESVKGRFIISRDDNKTSLYLEMNSLKTEDTAEYYCARNYYGSTPDYWGQGTLVTVS
VL: EIVLTQSPDFQSVTPKEKVTITCRASQFVGSSIHWYQQKPDQSPKLLIKYASESMSGVPSRFSGSGSGTDFTFTISSLEAEDAATYYCQQSHSWPFTFGPGTKVDIK
notes: Fab, E. coli lysate
B8: SEQ ID NO 76 (Fab, V domains shown)
VH: EVQLTESGGGLVQPGGSLRLSCRASGFIFSNHYMNWVRQAPGKGLEWIGEIRSKSINGATHYAESVKGRFIISRDDNGTSLYLEMNSLKTEDTAEYYCARNYYGSTYDYWGQGTLVTVS
VL: EIVLTQSPDFQSVTPKEKVTITCRASQFVGSSIHWYQQKPDQSPKLLIKYASESMSGVPSRFSGSGSGTDFTFTISSLEAEDAATYYCQQSHSWPFTFGPGTKVDIK
notes: Fab, E. coli lysate
B9: SEQ ID NO 84 (Fab, V domains shown)
VH: EVQLVESGGGLVQPGGSLRLSCAASQSTFSNHWMNWVRQAPGKGLEWIGEIRSKSSYSATHYAESVKGRFIISRDGNKNDLYLEMNSLKTEDTAEYYCARNYYGSTYDYWGQGTLVTVS
VL: EIVLTQSPDFQSVTPKEKVTITCRASQFVGSSIHWYQQKPDQSPKLLIKYASESMSGVPSRFSGSGSGTDFTFTISSLEAEDAATYYCQQSHSWPFTFGPGTKVDIK
notes: Fab, E. coli lysate
B10: SEQ ID NO 74 (Fab, V domains shown)
VH: EVQLTESGGGLVQPGGSLRLSCAASGSTFSNHWMNWVRQAPGKGLEWIGEIRSKSSYSATSYAESVKGRFIISRDDNKNSLTLEMNSLKTEDTAEYYCARNYYGSTPDYWGQGTLVTVS
VL: EIVLTQSPDFQSVTPKEKVTITCRASQFVGSSIHWYQQKPDQSPKLLIKYASESMSGVPSRFSGSGSGTDFTFTISSLEAEDAATYYCQQSHSWPFTFGPGTKVDIK
notes: Fab, E. coli lysate
B11: SEQ ID NO 67 (Fab, V domains shown)
VH: EVQLTESGGGLVQPGGSLRLSCRASGFTFSNHYMNWVRQAPGKGLEWIGEIRSKSIYSATHYAESVKGRFIISRDGNKTDLTLEMNSLKTEDTAEYYCARNYYGSTPDYWGQGTLVTVS
VL: EIVLTQSPDFQSVTPKEKVTITCRASQFVGSSIHWYQQKPDQSPKLLIKYASESMSGVPSRFSGSGSGTDFTFTISSLEAEDAATYYCQQSHSWPFTFGPGTKVDIK
notes: Fab, E. coli lysate
B12: SEQ ID NO 73 (Fab, V domains shown)
VH: EVQLVESGGGLVQPGGSLRLSCRASGSIFSNHYMNWVRQAPGKGLEWIGEIRSKSSYGATSYAESVKGRFIISRDDNKNDLTLEMNSLKTEDTAEYYCAQNYYGSTPDYWGQGTLVTVS
VL: EIVLTQSPDFQSVTPKEKVTITCRASQFVGSSIHWYQQKPDQSPKLLIKYASESMSGVPSRFSGSGSGTDFTFTISSLEAEDAATYYCQQSHSWPFTFGPGTKVDIK
notes: Fab, E. coli lysate
B13: SEQ ID NO 72 (Fab, V domains shown)
VH: EVQLTESGGGLVQPGGSLRLSCRASGSIFSNHYMNWVRQAPGKGLEWIGEIRSKSIYSATHYAESVKGRFIISRDGNGTSLYLEMNSLKTEDTAEYYCAQNYYGSTYDYWGQGTLVTVS
VL: EIVLTQSPDFQSVTPKEKVTITCRASQFVGSSIHWYQQKPDQSPKLLIKYASESMSGVPSRFSGSGSGTDFTFTISSLEAEDAATYYCQQSHSWPFTFGPGTKVDIK
notes: Fab, E. coli lysate
B14: SEQ ID NO 69 (Fab, V domains shown)
VH: EVQLVESGGGLVQPGGSLRLSCRASQFTFSNHWMNWVRQAPGKGLEWIGEIRSKSSNSATHYAESVKGRFIISRDGNGNSLYLEMNSLKTEDTAEYYCARNYYGSTYDYWGQGTLVTVS
VL: EIVLTQSPDFQSVTPKEKVTITCRASQFVGSSIHWYQQKPDQSPKLLIKYASESMSGVPSRFSGSGSGTDFTFTISSLEAEDAATYYCQQSHSWPFTFGPGTKVDIK
notes: Fab, E. coli lysate
B15: SEQ ID NO 65 (Fab, V domains shown)
VH: EVQLVESGGGLVQPGGSLRLSCRASGFIFSNHWMNWVRQAPGKGLEWIGEIRSKSIYGATHYAESVKGRFIISRDDNKNSLYLEMNSLKTEDTAEYYCAQNYYGSTYDYWGQGTLVTVS
VL: EIVLTQSPDFQSVTPKEKVTITCRASQFVGSSIHWYQQKPDQSPKLLIKYASESMSGVPSRFSGSGSGTDFTFTISSLEAEDAATYYCQQSHSWPFTFGPGTKVDIK
notes: Fab, E. coli lysate
B16: SEQ ID NO 77 (Fab, V domains shown)
VH: EVQLVESGGGLVQPGGSLRLSCAASGSTFSNHYMNWVRQAPGKGLEWIGEIRSKSIYSATSYAESVKGRFIISRDDNGNSLYLEMNSLKTEDTAEYYCAQNYYGSTYDYWGQGTLVTVS
VL: EIVLTQSPDFQSVTPKEKVTITCRASQFVGSSIHWYQQKPDQSPKLLIKYASESMSGVPSRFSGSGSGTDFTFTISSLEAEDAATYYCQQSHSWPFTFGPGTKVDIK
notes: Fab, E. coli lysate
B17: SEQ ID NO 68 (Fab, V domains shown)
VH: EVQLTESGGGLVQPGGSLRLSCRASQFIFSNHWMNWVRQAPGKGLEWIGEIRSKSINSATHYAESVKGRFIISRDDNKNDLTLEMNSLKTEDTAEYYCARNYYGSTYDYWGQGTLVTVS
VL: EIVLTQSPDFQSVTPKEKVTITCRASQFVGSSIHWYQQKPDQSPKLLIKYASESMSGVPSRFSGSGSGTDFTFTISSLEAEDAATYYCQQSHSWPFTFGPGTKVDIK
notes: Fab, E. coli lysate
B18: SEQ ID NO 75 (Fab, V domains shown)
VH: EVQLVESGGGLVQPGGSLRLSCRASGFTFSNHWMNWVRQAPGKGLEWIGEIRSKSIYSATHYAESVKGRFIISRDDNKNSLTLEMNSLKTEDTAEYYCARNYYGSTPDYWGQGTLVTVS
VL: EIVLTQSPDFQSVTPKEKVTITCRASQFVGSSIHWYQQKPDQSPKLLIKYASESMSGVPSRFSGSGSGTDFTFTISSLEAEDAATYYCQQSHSWPFTFGPGTKVDIK
notes: Fab, E. coli lysate

The target in this assay is T1, human tumor necrosis factor-α (rHuTNF-alpha, Biosource) (human, UniProt P01375 77-233).
T1 construct: Bought recombinant protein coated on ELISA plates; The TNFα of the Biacore assay is not described further; also called TNFα; human TNFα
T1 sequence (P01375 77-233 limits assumed): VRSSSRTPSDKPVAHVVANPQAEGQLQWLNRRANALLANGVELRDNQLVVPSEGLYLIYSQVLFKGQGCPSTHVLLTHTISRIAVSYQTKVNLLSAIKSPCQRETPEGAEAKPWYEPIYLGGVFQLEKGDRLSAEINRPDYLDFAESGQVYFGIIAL
In words: solid-phase ELISA, Fab lysate on coated rHuTNF-alpha. How it is done: The Fab libraries were cloned into pTrcHis2A (Cat. No. V365-20, Invitrogen, Carlsbad, Calif.). Proteins were expressed in E. coli and solid-phase ELISA was used to assess Fab binding to human TNFα. Briefly, 96-well plates were coated overnight at 4° C. with 1 μg/ml of rHuTNF-alpha (Biosource, Camarillo, Calif.) in Carbonate-bicarbonate buffer, pH9.4. After washing in PBS with 0.05% (w/v) Tween-20, the wells were blocked with 1% (w/v) BSA in PBS for 1 hour at room temperature. After washing, plates were incubated with transformed E. coli cell lysate diluted in the assay buffer (1% BSA and 0.05% Tween-20 in 10 mM PBS) for 2 hours at room temperature. Various concentrations of infliximab (0.5, 1 and 2 ng/ml) were used as positive anti-Human Kappa Light Chain Biotin/anti-penta-His Biotin control. Plates were washed and incubated with ImmunoPure Goat Anti-Human Kappa Chain, Biotin Conjugated (Cat. No. 31780, Pierce Biotechnology, Rockford, Ill.) and Penta-His Biotin Conjugate (Cat. No. 34440, QIAGEN, Valencia, Calif.) diluted 1:2000 in the assay buffer for 1 hour at room temperature. Following another washing step, plates were probed for 1 hour at room temperature with 100 μL/well of Streptavidin POD (Cat. No. 1089153, Roche Applied Science, Indianapolis, Ind.) diluted 1:4000 in the assay buffer. Plates were further washed and then incubated with 3,3′,5,5′-tetramentylbenzidine (TMB, Cat. No. 34028, Pierce Biotechnology) for 30 minutes. Substrate development was stopped by addition of 100 μL/well TMB Stop Solution (Cat. No. 50-85-05, KPL, Gaithersburg, Md.) and the absorbance was measured at 450 nm via an automated plate spectrophotometer.
Background: An ELISA detects its analyte on a solid surface through an enzyme-linked reagent.
Take B1: the binding result is “binds”. As for B2, the binding result is recorded as “binds”. The same measure for B3: “binds”; for B4: “binds”. The same measure for B5: “binds”; for B6: “binds”. The same measure for B7: “binds”; for B8: “binds”. Consider B9, for which the binding result is on record as “binds”. To B10 belongs “binds”. To B11 belongs “binds”; to B12, “binds”. Turning to B13, the binding result is listed as “binds”. The same measure for B14: “binds”; for B15: “binds”. With B16, the binding result is reported as “binds”. As for B17, the binding result is on record as “binds”.

Take B18: the binding result is on record as “binds”.
